Like-named read-outs stand apart in the source and are kept apart here.
What was measured:
Pum-HD [1] = target: T1, Pum-HD (Drosophila melanogaster, UniProt P25822 1093-1426); assay: ITC
T1 sequence: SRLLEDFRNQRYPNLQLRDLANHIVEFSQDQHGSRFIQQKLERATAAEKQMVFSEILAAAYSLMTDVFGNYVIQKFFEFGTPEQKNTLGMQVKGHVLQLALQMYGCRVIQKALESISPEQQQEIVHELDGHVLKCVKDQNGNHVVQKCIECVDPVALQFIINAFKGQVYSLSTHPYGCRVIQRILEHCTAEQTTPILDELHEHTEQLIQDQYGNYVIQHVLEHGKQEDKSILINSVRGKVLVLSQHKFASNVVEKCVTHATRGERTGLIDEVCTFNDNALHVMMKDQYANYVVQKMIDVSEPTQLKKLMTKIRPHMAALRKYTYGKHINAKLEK

[2] = target: T2, HD domain of Pumilio (Pum-HD) (Drosophila, UniProt P25822 1093-1426); assay: SEC + SEC-MALS
T2 sequence (looked up): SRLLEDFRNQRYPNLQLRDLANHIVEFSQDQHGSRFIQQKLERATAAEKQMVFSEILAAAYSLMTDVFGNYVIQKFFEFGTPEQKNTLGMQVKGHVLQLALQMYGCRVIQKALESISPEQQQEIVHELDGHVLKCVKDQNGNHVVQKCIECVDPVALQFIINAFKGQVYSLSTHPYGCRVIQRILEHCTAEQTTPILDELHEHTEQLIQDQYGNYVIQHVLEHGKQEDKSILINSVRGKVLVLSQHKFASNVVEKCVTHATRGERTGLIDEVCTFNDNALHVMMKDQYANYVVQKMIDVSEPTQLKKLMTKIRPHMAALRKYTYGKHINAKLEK

Pum-HD [3] = target: T1, Pum-HD; assay: ITC; remark: listed apart in the source
Pum-HD [4] = target: T1, Pum-HD; assay: ITC; remark: listed apart in the source
Pum-HD [5] = target: T1, Pum-HD; assay: ITC; remark: listed apart in the source
Pum-HD [6] = target: T1, Pum-HD; assay: ITC; remark: listed apart in the source
Brat-NHL [7] = target: T3, Brat-NHL (Drosophila melanogaster, UniProt Q8MQJ9 756-1037); assay: ITC
T3 sequence: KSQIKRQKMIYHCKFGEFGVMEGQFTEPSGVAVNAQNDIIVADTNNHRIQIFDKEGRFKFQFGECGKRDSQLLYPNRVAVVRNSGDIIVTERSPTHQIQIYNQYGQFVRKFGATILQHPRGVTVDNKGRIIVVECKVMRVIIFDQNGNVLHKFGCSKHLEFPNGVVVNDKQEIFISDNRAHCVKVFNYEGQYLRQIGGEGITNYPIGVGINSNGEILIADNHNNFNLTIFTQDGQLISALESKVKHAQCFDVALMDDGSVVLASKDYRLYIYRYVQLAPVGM

[8] = target: T4, Pum-HD;Brat-NHL;Nanos-ZnF (Drosophila melanogaster;Drosophila …, UniProt P25822;Q8MQJ9;P25724 1093-1426;756-1037;301-392, ||); assay: SEC-MALLS, NMR, SAXS/SANS
T4 sequence 1: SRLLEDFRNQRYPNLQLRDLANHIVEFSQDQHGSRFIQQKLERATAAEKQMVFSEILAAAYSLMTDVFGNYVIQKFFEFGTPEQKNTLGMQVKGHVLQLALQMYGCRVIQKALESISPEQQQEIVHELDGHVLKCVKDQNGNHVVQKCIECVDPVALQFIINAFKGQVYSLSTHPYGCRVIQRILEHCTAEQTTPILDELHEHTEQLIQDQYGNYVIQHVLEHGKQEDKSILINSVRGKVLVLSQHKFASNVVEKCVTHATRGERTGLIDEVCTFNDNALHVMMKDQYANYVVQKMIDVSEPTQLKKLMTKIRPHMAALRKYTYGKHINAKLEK
T4 sequence 2: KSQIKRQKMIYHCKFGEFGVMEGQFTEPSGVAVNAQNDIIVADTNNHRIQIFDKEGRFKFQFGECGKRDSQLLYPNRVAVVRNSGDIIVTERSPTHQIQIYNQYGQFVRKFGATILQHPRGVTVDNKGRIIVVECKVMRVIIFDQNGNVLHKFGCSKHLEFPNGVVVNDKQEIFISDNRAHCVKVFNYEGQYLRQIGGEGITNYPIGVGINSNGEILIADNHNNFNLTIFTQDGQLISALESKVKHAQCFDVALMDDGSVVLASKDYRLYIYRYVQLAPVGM
T4 sequence 3: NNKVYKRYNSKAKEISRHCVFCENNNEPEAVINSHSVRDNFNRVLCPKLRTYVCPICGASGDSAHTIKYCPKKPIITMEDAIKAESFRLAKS

Brat-NHL [9] = target: T3, Brat-NHL; assay: ITC; remark: listed apart in the source
Pum-HD [10] = target: T1, Pum-HD; assay: ITC; remark: listed apart in the source
Pum-HD [11] = target: T1, Pum-HD; assay: ITC; remark: listed apart in the source
Nanos-ZnF = target: T5, Nanos-ZnF (Drosophila melanogaster, UniProt P25724 301-392); assay: ITC
T5 sequence: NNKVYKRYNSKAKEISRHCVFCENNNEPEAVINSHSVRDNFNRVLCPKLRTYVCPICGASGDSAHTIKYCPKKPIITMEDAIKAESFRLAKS

Brat-NHL [12] = target: T3, Brat-NHL; assay: ITC; remark: listed apart in the source
Brat-NHL [13] = target: T3, Brat-NHL; assay: ITC; remark: listed apart in the source
Brat-NHL [14] = target: T3, Brat-NHL; assay: ITC; remark: listed apart in the source
Brat-NHL [15] = target: T3, Brat-NHL; assay: ITC; remark: listed apart in the source
Pum-HD [16] = target: T1, Pum-HD; assay: ITC; remark: listed apart in the source

UUGUUGUC (ssRNA) [BoxAext]: no binding (Pum-HD [1]).

B1: ZnF domain of Nanos (Nanos-ZnF) (domain or fragment, Drosophila, UniProt P25724 301-392, looked up)
chain: NNKVYKRYNSKAKEISRHCVFCENNNEPEAVINSHSVRDNFNRVLCPKLRTYVCPICGASGDSAHTIKYCPKKPIITMEDAIKAESFRLAKS
With B1 the “stoichiometry N” value [2] was 1.

UCGAAAAUUGUACAUAA (ssRNA) [NRE2 minus BoxA] showed a Kd (Pum-HD [3]) of 10 ± 0.3 nM and a Kd (Pum-HD [4]) of 11 ± 0.6 nM.

Work on UUGUUGUCGAAAAU (ssRNA) [NRE2 minus BoxB] yielded a Kd (Pum-HD [5]) of 1000 ± 20 nM and a Kd (Pum-HD [6]) of 1200 ± 80 nM.

UUGUUGUCGAAAAUUGUACAUAA (structured_RNA) [NRE2 (23-mer)] was tested, and the Kd (Brat-NHL [7]) was 1400 nM, the binding result [8] was “binds” and the Kd (Brat-NHL [9]) was 1200 ± 200 nM. For the same binder, the Kd (Pum-HD [10]) was 15 nM, the Kd (Pum-HD [11]) was 2 nM and the binding result (Nanos-ZnF) was “no binding”. It also gave a Kd (Brat-NHL [12]) of 200 nM, a Kd (Brat-NHL [13]) of 900 nM and a Kd (Brat-NHL [14]) of 320 ± 100 nM. The Kd (Brat-NHL [15]) was 370 ± 100 nM.

In the case of UUGUUG (ssRNA) [BoxA], the Kd (Brat-NHL [9]) is reported as 800 ± 200 nM, the binding result (Pum-HD [1]) is reported as “no binding” and the Kd (Brat-NHL [14]) is reported as 1000 ± 300 nM. It also gave a Kd (Brat-NHL [15]) of 1100 ± 300 nM.

UGUACAUA (ssRNA) [BoxB] showed a Kd (Pum-HD [16]) of 8.1 ± 1.7 nM, a Kd (Pum-HD [5]) of 6.6 ± 4 nM and a Kd (Pum-HD [6]) of 2 ± 2 nM.

Source: article PMC8421216 (Nucleic Acids Research, 2020)
